Literature values, collected in publication PMC10382592.

Biological target: Cys23 (UniProt position 23, FIKPTCPYCRR)

Substance: Glutaredoxin-1 (GLRX, thioltransferase) (Homo sapiens (inferred from the title of ref 11, 'Thiotransferase in human red blood cells'; the sentence itself refers to mammalian GLRX))
- pKa: approximately 3.5
